Publication PMC11073785, “YeeD is an essential partner for YeeE-mediated thiosulfate uptake in bacteria and regulates thiosulfate ion decomposition” (PLOS Biology, 2024)
Positions count from the first letter of the chain named. Names may count otherwise.

T1: StYeeD (Winmispira thermophila, UniProt G0GAP7)
T1 construct: gene Spith_0735; expressed in E. coli C41(DE3)
T1 sequence (G0GAP7 1-80): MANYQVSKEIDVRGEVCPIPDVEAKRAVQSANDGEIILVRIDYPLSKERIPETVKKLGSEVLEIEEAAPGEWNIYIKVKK

T2: Spirochaeta thermophila YeeE (Spirochaeta thermophila, UniProt G0GAP6 1-328)
T2 construct: YeeE of Spirochaeta thermophila, residues 1-328, UniProt G0GAP6; Membrane protein, kept in 0.1% DDM; The His tag was removed with TEV(S219V) protease; also called StYeeE; TsuA; source: E. coli C41(DE3), purified from the membrane fraction in DDM (Ni-NTA, TEV cleavage, Superdex 200)
T2 sequence (looked up): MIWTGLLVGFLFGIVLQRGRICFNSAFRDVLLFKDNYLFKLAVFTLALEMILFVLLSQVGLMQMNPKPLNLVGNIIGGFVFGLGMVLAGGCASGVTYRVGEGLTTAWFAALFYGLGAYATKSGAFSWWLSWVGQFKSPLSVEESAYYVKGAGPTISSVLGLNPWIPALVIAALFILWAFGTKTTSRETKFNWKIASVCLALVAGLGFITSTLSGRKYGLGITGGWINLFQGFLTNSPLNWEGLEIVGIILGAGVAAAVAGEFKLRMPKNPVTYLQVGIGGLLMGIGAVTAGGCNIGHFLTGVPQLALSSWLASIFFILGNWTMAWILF

B1: StYeeE (Winmispira thermophila DSM 6578) (protein)
chain: T2 sequence (looked up)
notes: 1-328 aa with C-terminal …-His8, His-tag removed by TEV; expressed in E. coli C41(DE3), purified in DDM, reconstituted in E. coli total lipid liposomes
B2: Spirochaeta thermophila YeeD (WT), His6-tagged (natural protein, UniProt G0GAP7 1-80, looked up)
chain: T1 sequence (G0GAP7 1-80)
notes: YeeD of Spirochaeta thermophila, residues 1-80, UniProt G0GAP7; 11.3 kDa with the tag; As purified, C17 is partly modified (mass spectrometry: -SH, -S-O2-/-S-S-, -S-SO3-); also called StYeeD; StYeeD(WT); source: E. coli C41(DE3), purified (Ni-NTA, Superdex 200)
B3: StYeeD(V16A), His6-tagged (natural protein, Spirochaeta thermophila, UniProt G0GAP7 1-80, looked up)
chain: T1 sequence (G0GAP7 1-80) with V16A
notes: YeeD of Spirochaeta thermophila, residues 1-80, UniProt G0GAP7, with V16A; source: E. coli C41(DE3), purified (Ni-NTA, Superdex 200)
B4: StYeeD(E48A), His6-tagged (natural protein, Spirochaeta thermophila, UniProt G0GAP7 1-80, looked up)
chain: T1 sequence (G0GAP7 1-80) with E48A
notes: YeeD of Spirochaeta thermophila, residues 1-80, UniProt G0GAP7, with E48A; source: E. coli C41(DE3), purified (Ni-NTA, Superdex 200)
B5: StYeeD(E9A), His6-tagged (natural protein, Spirochaeta thermophila, UniProt G0GAP7 1-80, looked up)
chain: T1 sequence (G0GAP7 1-80) with E9A
notes: YeeD of Spirochaeta thermophila, residues 1-80, UniProt G0GAP7, with E9A; source: E. coli C41(DE3), purified (Ni-NTA, Superdex 200)
B6: StYeeD(L45A), His6-tagged (natural protein, Spirochaeta thermophila, UniProt G0GAP7 1-80, looked up)
chain: T1 sequence (G0GAP7 1-80) with L45A
notes: YeeD of Spirochaeta thermophila, residues 1-80, UniProt G0GAP7, with L45A; source: E. coli C41(DE3), purified (Ni-NTA, Superdex 200)
B7: StYeeD(V39A), His6-tagged (natural protein, Spirochaeta thermophila, UniProt G0GAP7 1-80, looked up)
chain: T1 sequence (G0GAP7 1-80) with V39A
notes: YeeD of Spirochaeta thermophila, residues 1-80, UniProt G0GAP7, with V39A; source: E. coli C41(DE3), purified (Ni-NTA, Superdex 200)
B8: StYeeD(Y43A), His6-tagged (natural protein, Spirochaeta thermophila, UniProt G0GAP7 1-80, looked up)
chain: T1 sequence (G0GAP7 1-80) with Y43A
notes: YeeD of Spirochaeta thermophila, residues 1-80, UniProt G0GAP7, with Y43A; source: E. coli C41(DE3), purified (Ni-NTA, Superdex 200)
B9: StYeeD(R49A), His6-tagged (natural protein, Spirochaeta thermophila, UniProt G0GAP7 1-80, looked up)
chain: T1 sequence (G0GAP7 1-80) with R49A
notes: YeeD of Spirochaeta thermophila, residues 1-80, UniProt G0GAP7, with R49A; source: E. coli C41(DE3), purified (Ni-NTA, Superdex 200)
B10: StYeeD(L38A), His6-tagged (natural protein, Spirochaeta thermophila, UniProt G0GAP7 1-80, looked up)
chain: T1 sequence (G0GAP7 1-80) with L38A
notes: YeeD of Spirochaeta thermophila, residues 1-80, UniProt G0GAP7, with L38A; source: E. coli C41(DE3), purified (Ni-NTA, Superdex 200)
B11: StYeeD(E63A), His6-tagged (natural protein, Spirochaeta thermophila, UniProt G0GAP7 1-80, looked up)
chain: T1 sequence (G0GAP7 1-80) with E63A
notes: YeeD of Spirochaeta thermophila, residues 1-80, UniProt G0GAP7, with E63A; source: E. coli C41(DE3), purified (Ni-NTA, Superdex 200)
B12: StYeeD(K8A), His6-tagged (natural protein, Spirochaeta thermophila, UniProt G0GAP7 1-80, looked up)
chain: T1 sequence (G0GAP7 1-80) with K8A
notes: YeeD of Spirochaeta thermophila, residues 1-80, UniProt G0GAP7, with K8A; source: E. coli C41(DE3), purified (Ni-NTA, Superdex 200)
B13: StYeeD(E15A), His6-tagged (natural protein, Spirochaeta thermophila, UniProt G0GAP7 1-80, looked up)
chain: T1 sequence (G0GAP7 1-80) with E15A
notes: YeeD of Spirochaeta thermophila, residues 1-80, UniProt G0GAP7, with E15A; source: E. coli C41(DE3), purified (Ni-NTA, Superdex 200)

Molecular target: T1, StYeeD
Assay: H2S release with fluorescent probe HSip-1; adduct by MALDI-TOF MS
Type: biochemical
Conditions: 500 μM thiosulfate, 24.1 μM YeeD, 70 μM β-ME, pH 8.0, 37°C; covalent (C17)

Molecule	H2S release with fluorescent probe HSip-1; adduct by MALDI-TOF MS
O=S(O)(O)=S [thiosulfate ion]	suggesting that YeeD catalyzes the decomposition of thiosulfate as a substrate

Substrate: O=S(O)(O)=S
Assay: solid-supported membrane electrophysiology of proteoliposomes, negative peak area
Type: biochemical, Winmispira thermophila
Conditions: transport, Na2S2O3 1.25-40 mM exchanged against equal Na2SO4, pH 6.7, Michaelis-Menten fit

Molecule	Km
B1	626.1 µM

Molecular target: the molecule itself
Assay: SEC; purified His-tagged StYeeD(WT) on Superdex 200 Increase 10/300 GL, 10 mM Tris-HCl pH 8.0, 300 mM NaCl; two peaks compared with gel filtration markers
Conditions: not given

Molecule	stoichiometry N
B2	2

Molecular target: T2, Spirochaeta thermophila YeeE
Assay: BLI; StYeeD-His6 (4.82 μM) loaded on a Ni-NTA biosensor, 11.05 μM StYeeE in solution; Octet N1, room temperature; 20 mM Tris-HCl pH 8.0, 300 mM NaCl, 0.1% DDM, 1 mM β-ME; 120 s association, 120 s dissociation; local fitting; 3 measurements. WT was also run with 300 mM Na2SO4 (binding similar) or 300 mM Na2S2O3 (binding significantly decreased)
Conditions: both partners purified

Kd	koff	kon	Molecule
1.6 ± 0.2 µM	0.027 ± 0.0029 s⁻¹	17000 ± 2900 M⁻¹ s⁻¹	B2
5.6 ± 0.86 µM	0.093 ± 0.023 s⁻¹	17000 ± 1600 M⁻¹ s⁻¹	B3
4.5 ± 6.2 µM	0.14 ± 0.2 s⁻¹	17000 ± 10000 M⁻¹ s⁻¹	B4
4.6 ± 0.22 µM	0.027 ± 0.0021 s⁻¹	6000 ± 580 M⁻¹ s⁻¹	B5
1.2 ± 0.1 µM	0.035 ± 0.004 s⁻¹	29000 ± 1600 M⁻¹ s⁻¹	B6
5.4 ± 0.3 µM	0.032 ± 0.00058 s⁻¹	5800 ± 330 M⁻¹ s⁻¹	B7
20 ± 2.1 µM	0.16 ± 0.017 s⁻¹	8200 ± 950 M⁻¹ s⁻¹	B8
17 ± 23 µM	0.12 ± 0.16 s⁻¹	9000 ± 1400 M⁻¹ s⁻¹	B9
1.7 ± 0.055 µM	0.032 ± 0.003 s⁻¹	18000 ± 1300 M⁻¹ s⁻¹	B10
1.7 ± 0.074 µM	0.03 ± 0.0013 s⁻¹	18000 ± 260 M⁻¹ s⁻¹	B11
4.3 ± 0.61 µM	0.037 ± 0.0019 s⁻¹	8900 ± 1100 M⁻¹ s⁻¹	B12
9.5 ± 4.2 µM	0.071 ± 0.033 s⁻¹	7500 ± 1300 M⁻¹ s⁻¹	B13
